# Test results reported in patent publication US11466286B2, “Methods and compositions for conferring and/or enhancing herbicide tolerance using protoporphyrinogen oxidase or variant thereof” (FarmHannong Co., Ltd., priority 2016, dated 2022).
# Substitutions are numbered along the chain they refer to. Numbers in names are those of the source.
# B1: CyPPO10 F360M: CyPPO10 (SEQ ID NO: 2) PPO variant (protein)
# chain: MIEVDVAIVGGGLSGLSVAWRLQRSAPHYSGVLLEASDRLGGNITTQAAEGFVWELGPNSFAPTPALLQLIAEVGLHSELIRGDRHLPRYIYWRGELYPLEPTRPLALATSNLLSPWGKVRAALGALGFVPPYLGSGDESVDSFFRRHLGQEVAERLVAPFVSGVYAGDPQQLSAAAAFRRIAQLEKLGGSLIAGALRLRRQQPPQPKPPAQVQMRPGELGSFREGLAALPRAIAQQLKAPLHLQTPVEAITPEPKGGYLLRSGEQTWHARSVVLATPAYQTAELVAPFQPAIARALATIPYPTVACVVLAYPAGLGRSVRPGFGVLVPRGQGIRTLGTIWSSCLFPQRTPAGWQVFTSMIGGATDPDLASLREEAIVEQVQQDLTRLLDLPAAKARLLGMKVWRRAIPQYIVGYPQQWQQVTHALTQTPGLFLCSNYAEGVALGDRVEHGNRTAAAVAAYLAGGQS
# modifications: Synthetic CyPPO10
# B2: CyPPO10 A167C: CyPPO10 (SEQ ID NO: 2) PPO variant (protein)
# chain: B1 chain with A167C, M360F
# modifications: Synthetic CyPPO10
# B3: CyPPO10 V305M: CyPPO10 (SEQ ID NO: 2) PPO variant (protein)
# chain: B1 chain with V305M, M360F
# modifications: Synthetic CyPPO10
# B4: CyPPO10 F360I: CyPPO10 (SEQ ID NO: 2) PPO variant (protein)
# chain: B1 chain with M360I
# modifications: Synthetic CyPPO10
# B5: CyPPO10 F360C: CyPPO10 (SEQ ID NO: 2) PPO variant (protein)
# chain: B1 chain with M360C
# modifications: Synthetic CyPPO10
# B6: CyPPO10 F360L: CyPPO10 (SEQ ID NO: 2) PPO variant (protein)
# chain: B1 chain with M360L
# modifications: Synthetic CyPPO10
# B7: CyPPO13 F373I: CyPPO13 (SEQ ID NO: 4) PPO variant (protein)
# chain: MNPATPEPLNAEVVVIGAGISGLTLAWRLQQGLSARGGSPQAVLLAEASSRVGGCISTQSKDGYRWEEGPNSFTPTPALLNLIAEVGLTDQLVLADAKLPRYIYWEGALLPVPLSPAAALGSRLLSVGGKLRALQGLLGFVPPPPGHEETVRQFFRRQLGSEVAERLVEPFTSGVYAGDPDQLSAVAAFPRVAGLEERYGSLFAGALQALRQRPQPSPAAIQPPPKRGQLGNLRQGLQQLPEALAQKLGDSLRLGWRALQLKRAGELYWVGFETPEGSRWVAARQVVLALPAYEAAALLQELNPPASQLLAEILYPPVAVVALAYPQEALPQPLRGFGHLIPRSQGLRTLGTIWASCLFPERAPQGYHSFLSILGGATDAALARRRGIPPIPALSPEERAQIAHAELSQVLLTRRAEPVYLGERLWPRAIPQYTLGHRQRIAQVQAHLASQTPGIWVCANYLDGVALGDCVRRAEALAQQLLSQV
# modifications: Synthetic CyPPO13
# B8: CyPPO13 P316A + V318L: CyPPO13 (SEQ ID NO: 4) PPO variant (protein)
# chain: B7 chain with P316A, V318L, I373F
# modifications: Synthetic CyPPO13
# B9: CyPPO13 F373M: CyPPO13 (SEQ ID NO: 4) PPO variant (protein)
# chain: B7 chain with I373M
# modifications: Synthetic CyPPO13
# B10: CyPPO13 A177C: CyPPO13 (SEQ ID NO: 4) PPO variant (protein)
# chain: B7 chain with A177C, I373F
# modifications: Synthetic CyPPO13
# B11: CyPPO13 A177L + F373L: CyPPO13 (SEQ ID NO: 4) PPO variant (protein)
# chain: B7 chain with A177L, I373L
# modifications: Synthetic CyPPO13
# B12: CyPPO13 P316L + V318L: CyPPO13 (SEQ ID NO: 4) PPO variant (protein)
# chain: B7 chain with P316L, V318L, I373F
# modifications: Synthetic CyPPO13
# B13: CyPPO13 A177L + F373I: CyPPO13 (SEQ ID NO: 4) PPO variant (protein)
# chain: B7 chain with A177L
# modifications: Synthetic CyPPO13
# Tests used:
# [1] = system: A. thaliana; experiment: Seed germination of A. thaliana transformants on ½ MS media containing herbicides; assay type: in vivo, Arabidopsis thaliana; conditions: T3 lines; 25 μM glufosinate, 25 μM glufosinate+70 nM tiafenacil, or 25 μM glufosinate+30 nM tiafenacil+40 nM saflufenacil; 7 days after sowing
# Description: T3 generation seeds of each transformant were sown in ½ MS media containing herbicides. Col-0 ecotype (wild type Arabidopsis) seeds were used as a control. The kinds of herbicides and concentration are as follows:
# In FIGS. 31a to 31c, 10-3 refers to CyPPO10 wild type, 10FM-4-7 to the CyPPO10 F360M transgenic line, 10FL-1-9 to the CyPPO10 F360L transgenic line, 10FC-3-5 to the CyPPO10 F360C transgenic line, 10AC-5-4 to the CyPPO10 A167C transgenic line, 13-1 to CyPPO13 wild type, 13FM-3-1 to the CyPPO13 F373M transgenic line, 13FC-1-1 to the CyPPO13 F373C transgenic line, 13FI-2-1 to the CyPPO13 F373I transgenic line, 13AC-1-3 to the CyPPO13 A177C transgenic line, CyPPO13_ALFL to the CyPPO13 A177L+F373L transgenic line, and CyPPO13_ALFI to the CyPPO13 A177L+F373I transgenic line, respectively.
# [2] = system: CyPPO10; experiment: PPO enzyme activity and IC50 by herbicides, CyPPO10 wild type and variants (MBP-PPO fusion); assay type: biochemical, Thermosynechococcus elongatus BP-1; conditions: PPO enzyme activity of CyPPO10 protein, wild type = 100
# Outline: (§1)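 Activity was read as protoporphyrin IX fluorescence (405/633 nm), calibrated with a protoporphyrin IX standard curve, after 30 min at room temperature with 50 μM substrate under mineral oil. The buffer was 50 mM Tris-Cl pH 8.0 with glucose oxidase/catalase and a 30 min preincubation. Enzymes were purified MBP-PPO fusions of CyPPO10 or CyPPO13, wild type and variants, expressed in E. coli.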
# [3] = system: PPO-deficient BT3 E. coli (ΔPPO); experiment: Herbicide tolerance of PPO-deficient BT3 E. coli transformed with CyPPO10/CyPPO13 wild type or mutant genes on herbicide-containing LB agar; assay type: cell-based; parameters: key: the level of herbicide tolerance of the wild type was represented by “−”; if higher, adding “+” to the max “+++++”; if higher, adding “+” to the max “+++++”; if higher, adding “+” to the max “+++++”; if higher, adding “+” to the max “+++++”; if higher, adding “+” to the max “+++++”
# Description: In order to enhance PPO-inhibiting herbicide tolerance of CyPPO10 and CyPPO13, the amino acids interacting with herbicide, as identified in the Example 3, were mutated. After PPO-deficient BT3 E. coli (ΔPPO) was transformed with a PPO gene having such mutation, and then cultured with PPO-inhibiting herbicide, to observe the growth of transformed E. coli, as follows:
# The pET303-CyPPO10 or pET303-CyPPO13 plasmids prepared in the Example 4, and plasmids containing each mutant gene, were transformed into BT3 competent cell by a heat shock method, and cultured in a LB agar medium containing ampicillin (100 μg/ml).
# For seed culture of BT3 transformants, a single colony thereof was cultured in 3 ml of LB broth (LPSS) containing ampicillin for 12 hours or more, and 50˜100 μl of the cultured solution was further cultured until absorbance (OD600) reaches 0.5 to 1. Then, the obtained cultured solution was diluted with LB broth to adjust absorbance (OD600) to 0.5, and was diluted again 5 times by a factor of one tenth with LB broth.
# LB (25 g/L), Bacto agar (12 g/L), ampicillin (100 μg/ml) and various herbicides (0˜200 μM) were mixed, to prepare herbicide-containing media.
# Ten microliters of the diluted solution were dropped on the herbicide-containing media, and the media were incubated with light for 16-20 hours at 37° C. The growth level and PPO-inhibiting herbicide tolerance of BT3 transformed with each gene were evaluated.
# The herbicide tolerance was evaluated relatively compared to CyPPO wild type, and shown in following Tables 8 to 11 and FIGS. 11 to 29:
# In the Tables 8 to 11, the level of herbicide tolerance of the wild type was represented by “−”, and the level of herbicide tolerance was graduated by representing the equal level of tolerance by “−”, and if higher, adding “+” to the max “+++++”.
# FIGS. 11 to 19 (wild type and variants of CyPPO10) and FIGS. 20 to 29 (wild type and variants of CyPPO13) show the results of culturing E. coli transformed with CyPPO genes (wild type and variant type), and the concentration described on the top is concentration of herbicide treated. Six columns of each concentration were sequentially diluted 5 times by a factor of one tenth with the E. coli culture solution to the right, and the most left column is the result of E. coli culture solution OD600=0.5.
# [4] = system: CyPPO13; experiment: PPO enzyme activity and IC50 by herbicides, CyPPO13 wild type and variants (MBP-PPO fusion); assay type: biochemical, Synechococcus sp. JA-3-3Ab; conditions: PPO enzyme activity of CyPPO13 protein, wild type = 100
# Outline: as §1
# [5] = BT3 E. coli with CyPPO10 gene, relative to CyPPO10 wild type
# [6] = BT3 E. coli with CyPPO13 gene, relative to CyPPO13 wild type
molecule,measurement,setting,value
B1,Seed germination in media containing herbicides,[1],germinated
same,Activity (%),[2],93%
B2,Seed germination in media containing herbicides,[1],germinated
same,Activity (%),[2],98%
B3,Activity (%),[2],100%
same,"Herbicide tolerance level, Acifluorfen (up to 200 μM)",[3]; [5],+++
same,"Herbicide tolerance level, Fomesafen (up to 200 μM)",[3]; [5],++++
same,"Herbicide tolerance level, Pentoxazone (up to 200 μM)",[3]; [5],++++
same,"Herbicide tolerance level, Pyraclonil (up to 200 μM)",[3]; [5],+++
same,"Herbicide tolerance level, Pyraflufen-ethyl (up to 200 μM)",[3]; [5],+
same,"Herbicide tolerance level, Saflufenacil (up to 200 μM)",[3]; [5],+
same,"Herbicide tolerance level, Tiafenacil (up to 200 μM)",[3]; [5],++
B4,Seed germination in media containing herbicides,[1],germinated
same,Activity (%),[2],67%
B5,Seed germination in media containing herbicides,[1],germinated
B6,Seed germination in media containing herbicides,[1],germinated
same,Activity (%),[2],59%
B7,Activity (%),[4],83%
same,Seed germination in media containing herbicides,[1],germinated
B8,"Herbicide tolerance level, Acifluorfen (up to 200 μM)",[3]; [6],+++
same,"Herbicide tolerance level, Fomesafen (up to 200 μM)",[3]; [6],−
same,"Herbicide tolerance level, Pyraclonil (up to 200 μM)",[3]; [6],−
same,"Herbicide tolerance level, Pyraflufen-ethyl (up to 200 μM)",[3]; [6],+
same,"Herbicide tolerance level, Sulfentrazone (up to 200 μM)",[3]; [6],−
B9,Activity (%),[4],98%
same,Seed germination in media containing herbicides,[1],germinated
B10,Activity (%),[4],98%
same,Seed germination in media containing herbicides,[1],germinated
B11,Activity (%),[4],68%
same,Seed germination in media containing herbicides,[1],germinated
B12,"Herbicide tolerance level, Acifluorfen (up to 200 μM)",[3]; [6],+++
same,"Herbicide tolerance level, Fomesafen (up to 200 μM)",[3]; [6],++
same,"Herbicide tolerance level, Pyraclonil (up to 200 μM)",[3]; [6],−
same,"Herbicide tolerance level, Pyraflufen-ethyl (up to 200 μM)",[3]; [6],+
same,"Herbicide tolerance level, Sulfentrazone (up to 200 μM)",[3]; [6],+
B13,Activity (%),[4],66%
same,Seed germination in media containing herbicides,[1],germinated
